# Data from paper PMC12416549 (2024).
# Target: T1, TNFR1 (Homo sapiens, UniProt P19438)
# T1 chain: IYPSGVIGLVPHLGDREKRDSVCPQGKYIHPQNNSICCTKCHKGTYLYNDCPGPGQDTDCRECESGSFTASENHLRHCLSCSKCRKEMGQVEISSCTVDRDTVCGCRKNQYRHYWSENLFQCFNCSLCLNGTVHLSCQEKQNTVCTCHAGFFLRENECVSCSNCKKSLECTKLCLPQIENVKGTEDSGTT
# Experiment: yeast display SC50
row,Binder,apparent Kd (screen)
1,A67N (designed binder) SMEEEVEKAAKEYEKKKKEAIEKHLEKLKAKDKEAAERFLKELEEAAKEYAKDEAKTMSEEEAKRRNKKYKEKVLLSELSEEEQKEIKEAEEKLVRTILKYVEEAAK,7.07 nM
2,Y13W (designed binder) SMEEEVEKAAKEWEKKKKEAIEKHLEKLKAKDKEAAERFLKELEEAAKEYAKDEAKTMSEEEAKRRAKKYKEKVLLSELSEEEQKEIKEAEEKLVRTILKYVEEAAK,2.73 nM
3,K33P (designed binder) SMEEEVEKAAKEYEKKKKEAIEKHLEKLKAKDPEAAERFLKELEEAAKEYAKDEAKTMSEEEAKRRAKKYKEKVLLSELSEEEQKEIKEAEEKLVRTILKYVEEAAK,0.593 nM
4,A9W (designed binder) SMEEEVEKWAKEYEKKKKEAIEKHLEKLKAKDKEAAERFLKELEEAAKEYAKDEAKTMSEEEAKRRAKKYKEKVLLSELSEEEQKEIKEAEEKLVRTILKYVEEAAK,3 nM
5,A106E (designed binder) SMEEEVEKAAKEYEKKKKEAIEKHLEKLKAKDKEAAERFLKELEEAAKEYAKDEAKTMSEEEAKRRAKKYKEKVLLSELSEEEQKEIKEAEEKLVRTILKYVEEAEK,1.27 nM
6,K11D (designed binder) SMEEEVEKAADEYEKKKKEAIEKHLEKLKAKDKEAAERFLKELEEAAKEYAKDEAKTMSEEEAKRRAKKYKEKVLLSELSEEEQKEIKEAEEKLVRTILKYVEEAAK,0.446 nM
7,A46M (designed binder) SMEEEVEKAAKEYEKKKKEAIEKHLEKLKAKDKEAAERFLKELEEMAKEYAKDEAKTMSEEEAKRRAKKYKEKVLLSELSEEEQKEIKEAEEKLVRTILKYVEEAAK,0.117 nM
8,Y13E (designed binder) SMEEEVEKAAKEEEKKKKEAIEKHLEKLKAKDKEAAERFLKELEEAAKEYAKDEAKTMSEEEAKRRAKKYKEKVLLSELSEEEQKEIKEAEEKLVRTILKYVEEAAK,1.54 nM
9,K56P (designed binder) SMEEEVEKAAKEYEKKKKEAIEKHLEKLKAKDKEAAERFLKELEEAAKEYAKDEAPTMSEEEAKRRAKKYKEKVLLSELSEEEQKEIKEAEEKLVRTILKYVEEAAK,24.4 nM
10,E104Q (designed binder) SMEEEVEKAAKEYEKKKKEAIEKHLEKLKAKDKEAAERFLKELEEAAKEYAKDEAKTMSEEEAKRRAKKYKEKVLLSELSEEEQKEIKEAEEKLVRTILKYVEQAAK,1.05 nM
11,E44T (designed binder) SMEEEVEKAAKEYEKKKKEAIEKHLEKLKAKDKEAAERFLKELTEAAKEYAKDEAKTMSEEEAKRRAKKYKEKVLLSELSEEEQKEIKEAEEKLVRTILKYVEEAAK,0.956 nM
12,E72T (designed binder) SMEEEVEKAAKEYEKKKKEAIEKHLEKLKAKDKEAAERFLKELEEAAKEYAKDEAKTMSEEEAKRRAKKYKTKVLLSELSEEEQKEIKEAEEKLVRTILKYVEEAAK,1.27 nM
13,R66G (designed binder) SMEEEVEKAAKEYEKKKKEAIEKHLEKLKAKDKEAAERFLKELEEAAKEYAKDEAKTMSEEEAKRGAKKYKEKVLLSELSEEEQKEIKEAEEKLVRTILKYVEEAAK,7.07 nM
14,K15W (designed binder) SMEEEVEKAAKEYEWKKKEAIEKHLEKLKAKDKEAAERFLKELEEAAKEYAKDEAKTMSEEEAKRRAKKYKEKVLLSELSEEEQKEIKEAEEKLVRTILKYVEEAAK,1.16 nM
15,D53T (designed binder) SMEEEVEKAAKEYEKKKKEAIEKHLEKLKAKDKEAAERFLKELEEAAKEYAKTEAKTMSEEEAKRRAKKYKEKVLLSELSEEEQKEIKEAEEKLVRTILKYVEEAAK,2.73 nM
16,E45F (designed binder) SMEEEVEKAAKEYEKKKKEAIEKHLEKLKAKDKEAAERFLKELEFAAKEYAKDEAKTMSEEEAKRRAKKYKEKVLLSELSEEEQKEIKEAEEKLVRTILKYVEEAAK,4.39 nM
17,E49W (designed binder) SMEEEVEKAAKEYEKKKKEAIEKHLEKLKAKDKEAAERFLKELEEAAKWYAKDEAKTMSEEEAKRRAKKYKEKVLLSELSEEEQKEIKEAEEKLVRTILKYVEEAAK,16.7 nM

row,Binder,apparent Kd (screen)
1,V95Y (designed binder) SMEEEVEKAAKEYEKKKKEAIEKHLEKLKAKDKEAAERFLKELEEAAKEYAKDEAKTMSEEEAKRRAKKYKEKVLLSELSEEEQKEIKEAEEKLYRTILKYVEEAAK,3 nM
2,K31H (designed binder) SMEEEVEKAAKEYEKKKKEAIEKHLEKLKAHDKEAAERFLKELEEAAKEYAKDEAKTMSEEEAKRRAKKYKEKVLLSELSEEEQKEIKEAEEKLVRTILKYVEEAAK,0.446 nM
3,E42D (designed binder) SMEEEVEKAAKEYEKKKKEAIEKHLEKLKAKDKEAAERFLKDLEEAAKEYAKDEAKTMSEEEAKRRAKKYKEKVLLSELSEEEQKEIKEAEEKLVRTILKYVEEAAK,2.73 nM
4,K71P (designed binder) SMEEEVEKAAKEYEKKKKEAIEKHLEKLKAKDKEAAERFLKELEEAAKEYAKDEAKTMSEEEAKRRAKKYPEKVLLSELSEEEQKEIKEAEEKLVRTILKYVEEAAK,11.4 nM
5,K100F (designed binder) SMEEEVEKAAKEYEKKKKEAIEKHLEKLKAKDKEAAERFLKELEEAAKEYAKDEAKTMSEEEAKRRAKKYKEKVLLSELSEEEQKEIKEAEEKLVRTILFYVEEAAK,1.27 nM
6,E89P (designed binder) SMEEEVEKAAKEYEKKKKEAIEKHLEKLKAKDKEAAERFLKELEEAAKEYAKDEAKTMSEEEAKRRAKKYKEKVLLSELSEEEQKEIKPAEEKLVRTILKYVEEAAK,10.4 nM
7,M2C (designed binder) SCEEEVEKAAKEYEKKKKEAIEKHLEKLKAKDKEAAERFLKELEEAAKEYAKDEAKTMSEEEAKRRAKKYKEKVLLSELSEEEQKEIKEAEEKLVRTILKYVEEAAK,2.73 nM
8,Y70C (designed binder) SMEEEVEKAAKEYEKKKKEAIEKHLEKLKAKDKEAAERFLKELEEAAKEYAKDEAKTMSEEEAKRRAKKCKEKVLLSELSEEEQKEIKEAEEKLVRTILKYVEEAAK,7.78 nM
9,E5K (designed binder) SMEEKVEKAAKEYEKKKKEAIEKHLEKLKAKDKEAAERFLKELEEAAKEYAKDEAKTMSEEEAKRRAKKYKEKVLLSELSEEEQKEIKEAEEKLVRTILKYVEEAAK,0.446 nM
10,E86R (designed binder) SMEEEVEKAAKEYEKKKKEAIEKHLEKLKAKDKEAAERFLKELEEAAKEYAKDEAKTMSEEEAKRRAKKYKEKVLLSELSEEEQKRIKEAEEKLVRTILKYVEEAAK,0.593 nM
11,E86S (designed binder) SMEEEVEKAAKEYEKKKKEAIEKHLEKLKAKDKEAAERFLKELEEAAKEYAKDEAKTMSEEEAKRRAKKYKEKVLLSELSEEEQKSIKEAEEKLVRTILKYVEEAAK,0.718 nM
12,K56C (designed binder) SMEEEVEKAAKEYEKKKKEAIEKHLEKLKAKDKEAAERFLKELEEAAKEYAKDEACTMSEEEAKRRAKKYKEKVLLSELSEEEQKEIKEAEEKLVRTILKYVEEAAK,10.4 nM
13,I21T (designed binder) SMEEEVEKAAKEYEKKKKEATEKHLEKLKAKDKEAAERFLKELEEAAKEYAKDEAKTMSEEEAKRRAKKYKEKVLLSELSEEEQKEIKEAEEKLVRTILKYVEEAAK,0.49 nM
14,M58C (designed binder) SMEEEVEKAAKEYEKKKKEAIEKHLEKLKAKDKEAAERFLKELEEAAKEYAKDEAKTCSEEEAKRRAKKYKEKVLLSELSEEEQKEIKEAEEKLVRTILKYVEEAAK,2.73 nM
15,R96H (designed binder) SMEEEVEKAAKEYEKKKKEAIEKHLEKLKAKDKEAAERFLKELEEAAKEYAKDEAKTMSEEEAKRRAKKYKEKVLLSELSEEEQKEIKEAEEKLVHTILKYVEEAAK,2.48 nM
16,E103F (designed binder) SMEEEVEKAAKEYEKKKKEAIEKHLEKLKAKDKEAAERFLKELEEAAKEYAKDEAKTMSEEEAKRRAKKYKEKVLLSELSEEEQKEIKEAEEKLVRTILKYVFEAAK,1.05 nM
